Measured values from US20060234291A1 (MODPRO, published 2006).
Non-standard residues stand in square brackets, D forms with d. Nle = CCCC[C@H](N)C(=O)O; Orn = NCCC[C@H](N)C(=O)O

B1: LA-42h (peptide)
chain: Ac-NAAD[Nle]EAKIRHLAEK[Nle]AARGPVDAAQ[Nle]AEQLAKKFEAFARAG-NH2
modifications: also: two monomers associate antiparallel into four-helix bundle (dimer)
notes: two monomers associate antiparallel into a four-helix bundle

How the values were obtained:
[1] = biological target: the molecule itself; experiment: 1H NMR NOESY and CD spectroscopy, self-association
From the text: This is because NOEs only arise between nuclei separated by less than 5 Å [K. Wüthrich, NMR of proteins and nucleic acids, John Wiley & Sons, Inc., 1986] and the distances between Phe35 and Nle16, and between N15 and Lys19, are too long to give rise to NOEs within the monomer and too long to give rise to NOEs in a parallel dimer. […] The inventor concludes that KA-I forms an antiparallel dimer of helix-loop-helix hairpin motifs, and that residues in a and d positions are positioned in the hydrophobic core, whereas all other residues are solvent exposed.
CD spectra were recorded on a Jasco J-715 CD spectropolarimeter, in 0.1, 0.5, or 1 mm cuvettes in the interval from 280-190 nm at room temperature. Each spectrum is an average of six scans and the background was subtracted from the spectrum before the mean residue ellipticity at 222 nm was measured. A 1 mM stock peptide solution was prepared by dissolving the peptide in buffer, under the assumption that the lyophilized peptide contains 25% water. The pH was adjusted by addition of small amounts of 0.1 M-1 M NaOH or HCl. For the concentration dependent studies the stock peptide solution was diluted to the desired concentrations by pipetting. […] The concentration of the stock solution for the concentration dependent measurement was determined by quantitative amino acid analysis. […]

[2] = biological target: the molecule itself; experiment: 1H NMR NOESY, self-association
Description: The secondary and tertiary structures of LA-42h were investigated by ¹H-NMR spectroscopy. The ¹H-NMR spectrum of LA-42h was assigned from the TOCSY and NOESY spectra recorded in H₂O:D₂O (90:10 v/v) containing 4 vol % of TFE-d₃ at 308 K using methods described in detail previously [S. Olofsson, L. Baltzer, Folding & Design 1996, 347-356]. Most of the spin systems of the amino acids were identified from the αH—NH region in the TOCSY spectrum and the sequential assignments of residues 5 to 19 and 23 to 41were obtained from the NH—NH region in the NOESY spectrum. Due to the cis-trans equilibrium of Pro21, an extra set of resonances with low intensity from the amino acids near the proline in the loop region was identified. The aH chemical shifts are diagnostic of secondary structure formation, and the measured values were compared to tabulated values for random coil conformations [D. S. Wishart, B. D. Sykes, F. M. Richards, J. Mol. Biol. 1991, 222, 311-333]. From their upfield shifts relative to the random coil values, two helical segments were identified in the sequence of LA-42h from […] Nle16 and from Ala25 to Arg40. A loop region was also assigned from the downfield shifts, or absence of deviation relative to random coil conformation, of the α protons. […]

Protein | binding result [1] | binding result [2]
Ac-NAAD[Nle]EAAIKALAEK[Nle]AAKGPVDAAQ[Nle]AEQLAK[Orn]FEAFARAG-NH2 (also: two monomers associate antiparallel into four-helix bundle (dimer)) [KA-I] | binds | –
B1 | – | binds
